Experiment [1] has as its target CD19/NKG2DL tandem CAR with a short hinge (12 amino acids) derived from CD8α (UniProt P26718). The experiment in a line: flow cytometry on cells; CAR-transduced primary T-cells incubated with rhMICA-Avi (detected with Alexa Fluor 647 streptavidin) and/or rhCD19-Fc (detected with anti-human IgG-Fc antibody); MFI read in a subpopulation expressing the CD34 marker at similar level; one ligand alone or both together. A general note: In flow cytometry, cells or beads pass a laser one at a time.

Experiment [2] addresses CD19/NKG2DL tandem CAR with a short hinge (12 amino acids) derived from IgG4 (UniProt P26718). The description is as above.

B1: recombinant human Biotinylated Human MICA Protein, His,Avitag (ligand)
chain: EPHSLRYNLTVLSWDGSVQSGFLTEVHLDGQPFLRCDRQKCRAKPQGQWAEDVLGNKTWDRETRDLTGNGKDLRMTLAHIKDQKEGLHSLQEIRVCEIHEDNSTRSSQHFYYDGELFLSQNLETKEWTMPQSSRAQTLAMNVRNFLKEDAMKTKTHYHAMHADCLQELRRYLKSGVVLRRTVPPMVNVTRSEASEGNITVTCRASGFYPWNITLSWRQDGVSLSHDTQQWGDVLPDGNGTYQTWVATRICQGEEQRFTCYMEHSGNHSTHPVPSGKVLVLQSHW
modifications: biotin (biotinylated protein)
As to B1, the decrease of MICA binding against the NKG2DL single-targeting CAR in experiment [1] and in experiment [2] was 30% each time.

These data come from PMC12098294.
